The values below come from paper PMC2747011, “Soybean GmPHD-Type Transcription Regulators Improve Stress Tolerance in Transgenic Arabidopsis Plants”.

Details in all cases: protein: recombinant; tags: GST (N-term, pGEX-4T-1); strand 1 has 5' overhang AATT (4 nt) and 3' overhang AGCT (4 nt); strand 2 fully paired
For one data set, the target named is T1, GmPHD4 N domain (Glycine max, UniProt I1M961 1-114).
T1 sequence: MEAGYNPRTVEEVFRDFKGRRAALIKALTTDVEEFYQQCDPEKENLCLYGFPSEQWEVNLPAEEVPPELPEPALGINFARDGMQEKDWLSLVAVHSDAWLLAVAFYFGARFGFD
Briefly: EMSA; strong; Binding buffer not given (EMSA as in ref. 59); probe annealed in 50 mM NaCl; competitor in ten-fold excess. For orientation: Mobility shift assays separate free from complexed probe on a gel.

The target in another data set is T2, GmPHD4 NV (Glycine max, UniProt I1M961 1-199).
T2 sequence: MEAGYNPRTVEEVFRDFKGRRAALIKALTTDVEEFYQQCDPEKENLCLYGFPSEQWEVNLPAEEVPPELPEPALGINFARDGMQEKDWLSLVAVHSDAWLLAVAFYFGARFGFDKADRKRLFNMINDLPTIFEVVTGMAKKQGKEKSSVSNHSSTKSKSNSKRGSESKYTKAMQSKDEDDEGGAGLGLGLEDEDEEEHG
Briefly: EMSA; Binding buffer not given (EMSA as in ref. 59); probe annealed in 50 mM NaCl; competitor in ten-fold excess.

The target in another data set is T3, GST-GmPHD6 (Glycine max, UniProt I1L1N8 1-248).
T3 sequence: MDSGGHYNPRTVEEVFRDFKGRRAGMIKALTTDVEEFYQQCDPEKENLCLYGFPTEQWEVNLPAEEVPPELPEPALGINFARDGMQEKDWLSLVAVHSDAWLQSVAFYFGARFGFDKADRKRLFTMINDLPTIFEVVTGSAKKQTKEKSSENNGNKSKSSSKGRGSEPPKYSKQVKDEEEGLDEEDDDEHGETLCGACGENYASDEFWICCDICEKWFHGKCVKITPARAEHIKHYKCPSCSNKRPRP
Put plainly: EMSA; reduced by 10x unlabeled probe; Binding buffer not given (EMSA as in ref. 59); probe annealed in 50 mM NaCl; competitor in ten-fold excess.

Another data set deals with T4, GST-GmPHD5 (Glycine max, UniProt Q06A75 1-252).
T4 sequence: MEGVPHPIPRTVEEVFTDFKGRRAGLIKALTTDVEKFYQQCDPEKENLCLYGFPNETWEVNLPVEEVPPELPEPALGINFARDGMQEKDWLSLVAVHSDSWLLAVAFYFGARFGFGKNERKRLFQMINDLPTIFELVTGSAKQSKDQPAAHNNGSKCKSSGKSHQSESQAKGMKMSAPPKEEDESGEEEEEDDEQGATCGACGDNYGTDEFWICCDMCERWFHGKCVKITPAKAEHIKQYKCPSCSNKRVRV
The description is as above.

B1: 5x GTGGAG probe (dsDNA)
DNA 1: AATTCGGATCCGTGGAGGTGGAGGTGGAGGTGGAGGTGGAGGGTACCGAGCT
DNA 2: CGGTACCCTCCACCTCCACCTCCACCTCCACCTCCACGGATCCG
Consider B1, for which the binding result in the data set with GmPHD4 N domain is reported as “binds”; in the data set with GmPHD4 NV, “no binding”; in the data set with GST-GmPHD6, “binds”; with GST-GmPHD5 it was “binds”.
